The values below come from patent publication US20190060430A1 (published 2019).

First the molecules themselves.
B1: TCRCD4-NY#11 (TCR, V domains shown)
Valpha: AQSVSQHNHHVILSEAASLELGCNYSYGGTVNLFWYVQYPGQHLQLLLKYFSGDPLVKGIKGFEAEFIKSKFSFNLRKPSVQWSDTAEYFCAVNRRTGNQGGKLIFGQGTELSVKP
Vbeta: EAGVAQSPRYKIIEKRQSVAFWCNPISGHATLYWYQQILGQGPKLLIQFQNNGVVDDSQLPKDRFSAERLKGVDSTLKIQPAKLEDSAVYLCASSLGPYIDGAGCTFGSGTRLTVV
B2: TCRCD4-NY#5 (TCR, V domains shown)
Valpha: AQSVTQLGSHVSVSEGALVLLRCNYSSSVPPYLFWYVQYPNQGLQLLLKYTTGATLVKGINGFEAEFKKSETSFHLTKPSAHMSDAAEYFCAVSRANFGNEKLTFGTGTRLTIIP
Vbeta: DTEVTQTPKHLVMGMTNKKSLKCEQHMGHRAMYWYKQKAKKPPELMFVYSYEKLSINESVPSRFSPECPNSSLLNLHLHALQPEDSALYLCASSQDPRGGPQHFGDGTRLSIL
B3: TCRCD8-mPL#19 (TCR, V domains shown)
Valpha: GDSVIQMQGQVTLSENDFLFINCTYSTTGYPTLFWYVQYSGEGPQLLLQVTTANNKGSSRGFEATYDKGTTSFHLQKTSVQEIDSAVYYCAMSDASGSWQLIFGSGTQLTVMP
Vbeta: EAAVTQSPRSKVAVTGGKVTLSCHQTNNHDYMYWYRQDTGHGLRLIHYSYVADSTEKGDIPDGYKASRPSQENFSLILELASLSQTAVYFCASSPDRPSYNSPLYFAAGTRLTVT
B4: TCRCD8-mPL#2 (TCR, V domains shown)
Valpha: GDSVTQTEGQVTVSESKSLIINCTYSATSIGYPNLFWYVRYPGEGLQLLLKVITAGQKGSSRGFEATYNKEATSFHLQKASVQESDSAVYYCALSDSNYQLIWGSGTKLIIKP
Vbeta: DPKIIQKPKYLVAVTGSEKILICEQYLGHNAMYWYRQSAKKPLEFMFSYSYQKLMDNQTASSRFQPQSSKKNHLDLQITALKPDDSATYFCASSPDNSGNTLYFGEGSRLIVV
B5: TCRCD8-mPL#11 (TCR, V domains shown)
Valpha: GDSVTQTEGPVTVSESESLIINCTYSATSIAYPNLFWYVRYPGEGLQLLLKVITAGQKGSSRGFEATYNKETTSFHLQKASVQESDSAVYYCALGLGYKLTFGTGTSLLVDP
Vbeta: B4 Vbeta with P95G
B6: TCRCD8-mPL#20 (TCR, V domains shown)
Valpha: GDSVTQKEGLVTLTEGLPVMLNCTYQTIYSNAFLFWYVHYLNESPRLLLKSSTDNKRTEHQGFHATLHKSSSSFHLQKSSAQLSDSALYYCALNNVGDNSKLIWGLGTSLVVNP
Vbeta: NTKITQSPRYLILGRANKSLECEQHLGHNAMYWYKQSAEKPPELMFLYNLKQLIRNETVPSRFIPECPDSSKLLLHISAVDPEDSAVYFCASSQYGGANTEVFFGKGTRLTVV
B7: TCRCD8-mPL#17 (TCR, V domains shown)
Valpha: QQQVRQSPQSLTVWEGETAILNCSYEDSTFNYFPWYQQFPGEGPALLISIRSVSDKKEDGRFTIFFNKREKKLSLHITDSQPGDSATYFCAPNNRIFFGDGTQLVVKP
Vbeta: EAAVTQSPRNKVAVTGGKVTLSCNQTNNHNNMYWYRQDTGHGLRLIHYSYGAGSTEKGDIPDGYKASRPSQENFSLILELATPSQTSVYFCASLGYNYAEQFFGPGTRLTVL
B8: TCRCD8-mPL#12 (TCR, V domains shown)
Valpha: GDQVEQSPSALSLHEGTGSALRCNFTTTMRAVQWFQQNSRGSLINLFYLASGTKENGRLKSTFNSKESYSTLHIRDAQLEDSGTYFCAAVNTNTGKLTFGDGTVLTVKP
Vbeta: SVLLYQKPNRDICQSGTSLKIQCVADSQVVSMFWYQQFQEQSLMLMATANEGSEATYESGFTKDKFPISRPNLTFSTLTVNNARPGDSSIYFCSSRTPNTGQLYFGEGSKLTVL
B9: TCRCD8-mPL#22 (TCR, V domains shown)
Valpha: GQQVQQSPASLVLQEGENAELQCNFSSTATRLQWFYQHPGGRLVSLFYNPSGTKHTGRLTSTTVTNERRSSLHISSSQTTDSGTYFCAAASNTNKVVFGTGTRLQVLP
Vbeta: GALVYQYPRRTICKSGTSMRMECQAVGFQATSVAWYRQSPQKTFELIALSTVNSAIKYEQNFTQEKFPISHPNLSFSSMTVLNAYLEDRGLYLCGVDRANYAEQFFGPGTRLTVL
B10: TCRCD8-mPL#8 (TCR, V domains shown)
Valpha: TQTVSQSDAHVTVFEGDSVELRCNYSYGGSIYLSWYIQHHGRGLQFLLKYYSGNPVVQGVNGFKAEFSKSDSSFHLRKASVHWSDSAVYFCAVSAGGYKVVFGSGTRLLVSP
Vbeta: NTKITQSPRYLILGRANKSLECEQHLGHNAMYWYKQSAEKPPELMFLYNLKQLIRNETVPSRFIPECPDSSKLLLHISAVDPEDSAVYFCASSPGGAEQFFGPGTRLTVL
B11: TCRCD8-mPL#14 (TCR, V domains shown)
Valpha: B10 Valpha with R42H, K64E, A95S
Vbeta: B10 Vbeta with P94Q, A97T, Q99V, P103K, L110V
B12: TCRCD4-TPT#48/2 (TCR, V domains shown)
Valpha: AQSVTQPDIHITVSEGASLELRCNYSYGATPYLFWYVQSPGQGLQLLLKYFSGDTLVQGIKGFEAEFKRSQSSFNLRKPSVHWSDAAEYFCAVGAYDMRFGAGTRLTVKP
Vbeta: DVKVTQSSRYLVKRTGEKVFLECVQDMDHENMFWYRQDPGLGLRLIYFSYDVKMKEKGDIPEGYSVSREKKERFSLILESASTNQTSMYLCASNRLNTEAFFGQGTRLTVV
B13: TCRCD4-TPT#91 (TCR, V domains shown)
Valpha: EDQVTQSPEALRLQEGESSSLNCSYTVSGLRGLFWYRQDPGKGPEFLFTLYSAGEEKEKERLKATLTKKESFLHITAPKPEDSATYLCAVLGGSNYKLTFGKGTLLTVNP
Vbeta: NAGVTQTPKFQVLKTGQSMTLQCAQDMNHNSMYWYRQDPGMGLRLIYYSASEGTTDKGEVPNGYNVSRLNKREFSLRLESAAPSQTSVYFCAISRDSYEQYFGPGTRLTVT
B14: TCRCD4-TPT#67 (TCR, V domains shown)
Valpha: QKEVEQDPGPLSVPEGAIVSLNCTYSNSAFQYFMWYRQYSRKGPELLMYTYSSGNKEDGRFTAQVDKSSKYISLFIRDSQPSDSATYLCALYTGGFKTIFGAGTRLFVKA
Vbeta: KAGVTQTPRYLIKTRGQQVTLSCSPISGHRSVSWYQQTPGQGLQFLFEYFSETQRNKGNFPGRFSGRQFSNSRSEMNVSTLELGDSALYLCASSFMGTEQYFGPGTRLTVT
B15: TCRCD8-NY#5 (TCR, V domains shown)
Valpha: ILNVEQSPQSLHVQEGDSTNFTCSFPSSNFYALHWYRWETAKSPEALFVMTLNGDEKKKGRISATLNTKEGYSYLYIKGSQPEDSATYLCASTSYSSASKIIFGSGTRLSIRP
Vbeta: GAGVSQSPRYKVTKRGQDVALRCDPISGHVSLYWYRQALGQGPEFLTYFNYEAQQDKSGLPNDRFSAERPEGSISTLTIQRTEQRDSAMYRCASSHSSGGAGELFFGEGSRLTVL
B16: TCRCD8-NY#6 (TCR, V domains shown)
Valpha: SQQGEEDPQALSIQEGENATMNCSYKTSINNLQWYRQNSGRGLVHLILIRSNEREKHSGRLRVTLDTSKKSSSLLITASRAADTASYFCATDEYGNKLVFGAGTILRVKS
Vbeta: DAGVIQSPRHEVTEMGQEVTLRCKPISGHNSLFWYRQTMMRGLELLIYFNNNVPIDDSGMPEDRFSAKMPNASFSTLKIQPSEPRDSAVYFCASSYPGFNEQFFGPGTRLTVL
B17: TCRCD8-NY#8 (TCR, V domains shown)
Valpha: AQSVTQLDSQVPVFEEAPVELRCNYSSSVSVYLFWYVQYPNQGLQLLLKYLSGSTLVKGINGFEAEFNKSQTSFHLRKPSVHISDTAEYFCAVSDQGTGGFKTIFGAGTRLFVKA
Vbeta: DVKVTQSSRYLVKRTGEKVFLECVQDMDHENMFWYRQDPGLGLRLIYFSYDVKMKEKGDIPEGYSVSREKKERFSLILESASTNQTSMYLCASRGTVTSSLMNTEAFFGQGTRLTVV
B18: TCRCD8-NY#15 (TCR, V domains shown)
Valpha: QKEVEQNSGPLSVPEGAIASLNCTYSDRGSQSFFWYRQYSGKSPELIMSIYSNGDKEDGRFTAQLNKASQYVSLLIRDSQPSDSATYLCAVPYYWSSGGSNYKLTFGKGTLLTVNP
Vbeta: B2 Vbeta with D96S, P97G, R98L, G99E, G100E, P101T, H103Y, D106P, S111L, I112V

Where a chain is given by its changes, count along the chain named.

One experiment has as its target NY-ESO-1 peptide on HLA-DRB1*11:01 (human). Briefly: cytokine release.
B1: the binding result is “recognises”.
Still for that read-out and setting: under B2 stands “recognises”.

The next experiment addresses T1, PLAC1 peptide on HLA-A*02:01 (human).
T1 peptide: CSIDWFMVTVHP
Briefly: cytokine release.
Turning to B3, the binding result was “recognises”.
Turning to B4, the binding result was “recognises”.
As for B5, the binding result is “recognises”.
On the same count and under the same terms, under B6 stands “recognises”.
On the same count and under the same terms, under B7 stands “recognises”.
On to B8, for which the binding result was “recognises”.
For B9, the binding result is “recognises”.
Same read-out and setting: under B10 stands “recognises”; under B11, “recognises”.

In a further experiment the target is T2, PLAC1 peptide on HLA-A*02:01 (human).
T2 peptide: VLCSIDWFM
Briefly: cytokine release.
For B3, the binding result is given as “recognises”.
Same read-out and setting: under B4 stands “recognises”; under B5, “recognises”; under B6, “recognises”.
Regarding B7, the binding result is on record as “recognises”.
B8: the binding result was “recognises”.
On the same count and under the same terms, under B9 stands “recognises”; under B10, “recognises”.
Turning to B11, the binding result is “recognises”.

A further experiment deals with T3, TPTE peptide on HLA-DRB1*15:01 (human).
T3 peptide: DVVYIFFDIKLLRNI
Nature of the experiment: cytokine release.
For B12, the binding result is given as “recognises”.
Still for that read-out and setting: under B13 stands “recognises”; under B14, “recognises”.

For another experiment, the target named is T4, PLAC1 peptide on HLA-A*02:01 (human).
T4 peptide: SIDWFMVTV
Nature of the experiment: cytokine release.
B3: the binding result is recorded as “recognises”.
On the same count and under the same terms, under B4 stands “recognises”.
Still for that read-out and setting: under B5 stands “recognises”; under B6, “recognises”; under B7, “recognises”.
Still for that read-out and setting: under B8 stands “recognises”; under B9, “recognises”.
For the molecule B10, the binding result is listed as “recognises”.
For the molecule B11, the binding result is recorded as “recognises”.

Another experiment addresses T5, NY-ESO-1 peptide on HLA-B*35:08 (human).
T5 peptide: LAMPFATPM
Briefly: cytokine release.
On to B15, for which the binding result is “recognises”.
The same measure, in the same setting: under B16 stands “recognises”; under B17, “recognises”; under B18, “recognises”.
